Experiment: soluble on expression in E. coli; label from the status in PepcDB or PDB records
For “MRHSSYEHVPNRIIPPHIPIDARRGDFDRRPGPPVPSMRAAILGGSDPYHGFQPVVDTYNGPVVDNSRRRGFDKGPFGEDLTTMGRNEGRQPLLRHPRLDFEHIGGEMEIARSRSASPEIQVISARSVRDDRRRDKPRQRRSSRSRSRDRGDKDHRKPAASRRSDRESTYRERLGSSSGPAAAPDIIRDGMVWANDNYFEFLSFYIEVLNEKLRSSVDRDVKGIREIREVITPATEPEKDRIVLPPNFNRSDRERMLHCDTTITGLPTAIFFGSGYGPREHYAKYSAAKDFFDKCLKIRVMDDELHAAIGEWPRLDRTFKTQFKVNISKSVNAVILLIKRMANEQLPPGFMTMRTLPIDIIDRFKFLLRMVVADVYYQGTESSMAVPKALETGYNTQPYPPNQYPLDTDIRRPSERPSNGPSAEEAARVRDQEIKEQVARELEKRQKVMEQEIRAKILEEERARIQGEAEREKKLELMKAEEQKYQKEKEMKEFEEQQKKAMMTKQVEDDFNVMVEQLEKMFVEVRSKGLNHILDMIYGSATFKTIQLYSSTLTSLSFEQKQKLVQDLRSLLDSVTMGMKVAAVAQMSQAQNPIQGGLFQHQQQQQQPMMSGGGGFVSGVQVVPMQVPMQSYQMPQMQIHHQAFPQPQQLNTTPLLSSSVPMRRDEVRRVTVGDMRLRSLSRSEQRDLRVGNKIIAQDSKTGTWTLATVVKIREDRVTVSVANGTWKKDIDDLYKEDDGSLVY”, the “soluble on expression in E. coli” value was “not soluble”. For “MRIAAAVVSIGLAVIAGFAVPVADAHPSEPGVVSYAVLGKGSVGNIVGAPMGWEAVFTRPFQAFWVELPACNNWVDIGLPEVYDDPDLASFNGATTQTSATDQTHLVKQAVGVFASNDAADRAFHRVVDRTVGCSGQTTAIHLDDGTTQVWSFAGGPSTGTDEAWTKQEAGTDRRCFVQTRLRENVLLQAKVCQSGNAGPAVNVLAGAMQNTLG”, the “soluble on expression in E. coli” value was “soluble”. For “MRIAIIGSGCSGLTAIKNLLDAGLKEIICFEKSDQIGGNWVYTAAPSHSSVSEATHIISSKALSQFSDFPMPDDYPDYPSHQQILAYFQAYTRHFHLDHYIRFNTAVLRAEKIEKERWCLHLDDGTQAEFDYLLVANGHHSVPRHPDWKECFTGKYLHAHEYKTNQGLEGKRILVVGAGNSGCDCAVEASRVAARVDISLRSPQYIIPKFIMGRPTDTFAATFHWLPQSVQDGLQRISLRLQIGRYHDYALPEPDFSPTRAHPTINSALFDKIRHGKVHPRPGIQKVSGQTVYFADNATAQYDVLIAATGYKISFPFFDRDFLDWEEAAHIPLFLRIFHPDHPSLFFVGLIQPQGCIWPLAEIQARLIGQLLTNKIQLPLNWRKLALSEGRNRAQQFIARPRHSIEVHYYPYLKQLQRMIQGQIKLEHHHHHH”, the “soluble on expression in E. coli” value was “soluble”. With “MRIEGELVKAKFVKRLNRFVALVEVDGVQEFAHVPNTGRLKELLVDGAAVMVRKYDKTDRKTRFGLILVRKNGIWVSIDSANAPNRIMYEALVQGKFDKFRDYSEIRREVTVLNSRFDFGLFSEGKEYYIEVKGVTLVENRQGFFPDAPTQRGTRHLEELTKIRQNGKEAGVAFIVQREDADVVRPNDRTDKNFANALRIAAEAGVDLMAYVCKVDAEQRRMDIVREIPVIIK” the “soluble on expression in E. coli” value was “soluble”. In the case of “MRIFAVFIFMTYWHLLNAFTVTVPKDLYVVEYGSNMTIECKFPVEKQLDLAALIVYWEMEDKNIIQFVHGEEDLKVQHSSYRQRARLLKDQLSLGNAALQITDVKLQDAGVYRCMISYGGADYKRITVKVNAPYNKINQRILVVDPVTSEHELTCQAEGYPKAEVIWTSSDHQVLSGKTTTTNSKREEKLFNVTSTLRINTTTNEIFYCTFRRLDPEENHTAELVIPELPLIEGRSRGSGLNDIFEAQKIEWHHHHHHHH”, the “soluble on expression in E. coli” value is reported as “soluble”. For “MRIFLNTVHLFALCAAAAIATEESTTPKPASWKFGTIAGEPDDYTNSTAVQVNNFKECIAKCSAIFDCIIASQKSKSEPCNLFLWNSVTKVKRAESGGEGQTAFRVFTEQPRCKLSMDELLNGKKYQIYKNDTEHYIWTINKTEDGWAMEYSKTILNNIIHCNDPDAYKYPGVRGCYKIVLPFKEDKKWESGMLSYPEAVGNCTLLGGDGLMTIPSSDFASQIKQNQNSTQSSTVYFIGLTRPDDSSNDNWVWTLPDLKIDSSPLPPWSFPPSLNVEAIWAENCALVSIEADPTKSLLHATLCQQWNRMSGYICHFAQ”, the “soluble on expression in E. coli” value was “not soluble”. For “MRILFVGPPLYGLLYPVLSLAQAFRVNGHEVLIASGGKFAQKAAEAGLVVFDAAPGFDSEAGYRRQEALRKENNIGTKMGNFSFFSEEMTDPLVAFAGQWRPDLIVYPPLGVVGPLIAAKYDIPVVMQTVGFGHTPWHIKGVTKSLSNAYRRHGVSAPPRDLAWIDVTPPSMSILQNDGEPVISMQYVPYNGGAVWEEWWERTPDRKRLLVSLGTVKPMVDGLDLISWVMDSAGEVDAEIILHLPANARSDLRSLPPNVRLVDWLPMGVFLNGADGFIHHGGAGNTLTALHAGIPQIVFGQGADRPVNARAVVERGCGIIPGKSGLTSSMINTFLGNRALREASQEVAAEMAAQPCPTEVAKKLIAMLQHGLEHHHHHH”, the “soluble on expression in E. coli” value was “not soluble”. In the case of “MRILHTSDWHLGQNFYSKSREAEHQAFLDWLLETAQTHQVDAIIVAGDVFDTGSPPSYARTLYNRFVVNLQQTGCHLVVLAGNHDSVATLNESRDIMAFLNTTVVASAGHAPQILPRRDGTPGAVLCPIPFLRPRDIITSQAGLNGIEKQQHLLAAITDYYQQHYADACKLRGDQPLPIIATGHLTTVGASKSDAVRDIYIGTLDAFPAQNFPPADYIALGHIHRAQIIGGMEHVRYCGSPIPLSFDECGKSKYVHLVTFSNGKLESVENLNVPVTQPMAVLKGDLASITAQLEQWRDVSQEPPVWLDIEITTDEYLHDIQRKIQALTESLPVEVLLVRRSREQRERVLASQQRETLSELSVEEVFNRRLALEELDESQQQRLQHLFTTTLHTLAGEHEA”, the “soluble on expression in E. coli” value is reported as “soluble”. In the case of “MRILVVRHGLPEDPRCFAYDPVQRLIAIGTGRGHIRIIGDAGVDYLLKHESGEPVLHMQFLVNEGGLITSCGTDSIHLWNYRQKTAEIVHTVQLSKESVSCIHLPVAGKWLFIGTDKGNVYFLCLNSFLLSPYVINWNKAIDLSCRVHPGPVRQLAVSPAENTKLLIVYDKGIVVQWNLGTREVDRYPLDPPIKSVNWHFDGRQILTGNVDGSISLYNHKKSTEAIQRTTPHGSGPCRPIQQVEWKHMSETESIIMFSGGMPTDDGLPMPALTILKGGKSATVLEMDWPIIQFIPLNQNIWNSIPQCPHSVAVLLKHDFMVLDLNQNGHPVIESPHAMNIHESPVTCMAYYSDCPLDLIGALTLVGTKQRNKEFSARSWPVTGGLGRECATGHQELVVTGHKDGSLKFWQETGEHLQILYKLKSSSHFERLEEMETSDKVSHAVKYIELCLESRQLLVAGISGQVTLFRFTKQEICGTIAVVNIPLLGNLSSNLPNNDFDKSPVPNGPGKEIRRQRKIVSRESTNSLDTSDSGDERIVPFKVRGAPVKRPPGFVPELACFVPWHSHAKVDQITTICLNSSYGIIAIGTSSGLALVDTTQCALIYSWTTNELYGSDPTPAIQLSMQLSDAASPLEIDEFENDDTLIYNTDTGNYTLRSTRNSLTPSSNGFLHPGEMPTRPKSAANSSNKSGGMMGLFRRNTAELAATIRERYQGNRSESATTDRPDVEHRGETPPPTPNEGNKVQKAGRSHSVKGSFIRRFAKSSSSKEKKEVKIEVDNQSNSGIERSRSFHSHISEEGDSQRESPSSGRQLNTSSPSTSSQSLERSMSTQPQESITSLSFIHSYSKKNDSKMSPCLWVGTSAGASLALNLILPEDRFTSTIVVAPSGTVVRLKGQVISQSFMDNTFCIISPASESYKEAAKEQSATSPDRSLLNRVNTKASLAPQYSSSIDSNDEISQILIVAAENEVKVVALPTFSQLYVQKFDEIPLVKATPTHIRGYPCLMCLSAAGQIIMLSLPSLRILQTSTIFPHSVEIDDPLCQKTAFSDHGLGVYMASQTEMEKYTMCSEIAEQTGESLGELFVPCEMPEQPKNNSFLKGVSSIFGGTPRNDPNDIDAILSENMGVKNSSGVNPMRSVARTIPGPSVQMDRAQAGGVSAGQAAAMALQNLNERTEKLNATVDATENLKNNAMSLSSRTGKLVEKYEKKKWYNF”, the “soluble on expression in E. coli” value is reported as “not soluble”. In the case of “MRISAKGRYALAAVISMAQQYNNGEYITVISISEKLGISKIFLEQVFSSLKKAKIVSSTKGVQGGYQLTRTPSQITVLDVLLSVEVSLFEQTQETVSDKAPDIEQALRSSVFDVLDKNIKQTLSTITIADLVAEAEKHKDYNALMFYI”, the “soluble on expression in E. coli” value is reported as “soluble”. In the case of “MRITSTANPRIKELARLLERKHRDSQRRFLIEGAREIERALQAGIELEQALVWEGGLNPEEQQVYAALGRVGRLALLEVSEAVLKKLSVRDNPAGLIALARMPERTLEEYRPSPDALILVAVGLEKPGNLGAVLRSADAAGAEAVLVAGGVDLYSPQVIRNSTGVVFSLRTLAASESEVLDWIKQHNLPLVATTPHAEALYWEANLRPPVAIAVGPEHEGLRAAWLEAAQTQVRIPMQGQADSLNVSVSAALLLYEALRQRLLRDRLTKTHSTL”, the “soluble on expression in E. coli” value is reported as “soluble”. With “MRKFMMSVVMLAALTSCATQNMHGNYAAVSIEANKTMADVTVAQLVALYPPAHTRLDFQQTITDPYGAALLSALRKKGYSVLEYNPQPQAVPAKSAATAALVTANPTSGLPLSYVVDSPESMNLYRITVQIGVQSISRAFVVATNGNLYPAGAWVRKELEHHHHHH” the “soluble on expression in E. coli” value was “not soluble”. In the case of “MRKGCFGLVSLVLLLLVGCRSHPEIPVNDEQSLVMESSLLAAGISAEKPFLSTSDIQPSASSTLYNERQEPVTVHYRFYWYDARGLEMHPLERPRSVTIPAHSAVTLYGSANFLGAHKVRLYLYLLEHHHHHH”, the “soluble on expression in E. coli” value is reported as “soluble”. For “MRKKKDGQNLPDFRKNPPKLDKKAYEKELKRLQAELVDLQQWVVETGARVVIVMEGRDAAGKGSAIKRITQYLNPRSARIEALPTPNSREKGQWYFQRYIEKLPTAGEIVIFDRSWYNRAGVERVMGFCTSQEYRRFLHQAPIFERLLVEDGIHLRKYWFSVSDEEQIERFEDRLSDPLRRWKLSPMDLQSITRWEDYSRAKDEMFIHTDIPSAPWYTVESEDKKRSRINVISHLLSTIPYEKIDRPLPEIPHRPDSESDYVRPPRDEFRYVPDVAAHLEEERIKKEEKAKKAKKPAKAAGKNSDKQKSSGGKGKKKSKK”, the “soluble on expression in E. coli” value was “not soluble”. With “MRKLLAVFSKGRWKMEQKLQEQLDGLLEKYTELLLGETNDELKEEVKQWILYTHIAKSMPPLAKHWNATYPDAKQGIKEIIQHIKELNEAHRNKQLEHHHHHH” the “soluble on expression in E. coli” value was “soluble”. With “MRKLVIPKYYGRPSIGLALFGCTNRPFYHVCVFPDRALGRRYEGNILEQVGTFDPLPNQKNEKLVALNFGRLKYWIGERNAHISVPVLELLGERRNCLSGLFPIHPKSFIRAKDNRALIADQQLKVAAEAAEAEKVAQEQASTGAAATSHPQ” the “soluble on expression in E. coli” value was “not soluble”. In the case of “MRKSLTDIYEARVDAEELRADPAQHAVLEDLEGIRQWLEAHPERKRGLFGLFAAKEEPPKGLYLWGGVGRGKSMIMDLFTEAVEIPMKRRVHFHAFMQEVQQGMHEARKKGVEDALQPVADSVAGQVRLLAFDEMQITDITDAMVVGRLFQKLFEQGVVIVTTSNRPPEGLYENGLNREVFLPFIDLLRERMTVIELESPTDYRQHRLQGAQVFFHPARKAEQAIARIWSDLTGGDRGHPMRLPVNGRTVEIPRFANGVGRATFWGLCARPLGPADFLAIAEACRVLILEDIPRLSAENYNEAKRFVTLIDALYEARVRLIASAADEPERLYIEGEGSFEFERTASRLREMQSADWANLEHHHHHH”, the “soluble on expression in E. coli” value is reported as “not soluble”. With “MRKWETFIIDYMNKSKKTFVKTIDIEHHLKTLLKQEYDDDGGYFKYSSTLKNMVEEEKIQPVKARGHNHQTPPVFNEYRLVKKERRTNPTHIKKLMTDYLLFNMTAFYDEAEFEKWKFYIDRVHAFLTQNSDTKNNILKANERSFELFRNEKFLLDKEGTKFLANLGLTLSDLNCRRTYEPFVEYQPNPSKKPKNILIIENRDTFDSIKELMIDGIDTWSRITFDMVIYGEGDKIQRSFYFLEEYELEDYEVYYFGDLDARGIHICSELIKIDNRVKPFIPFYIELLNRYGHEPSTRTIERKLKQTIIDDSLKLFSSFFEGDYIDELKRYTDIIQNVQIYIPQEGLNLVILRKLGERR” the “soluble on expression in E. coli” value was “not soluble”.
